Experimental findings from patent US20260103529A1, “Amino Acid Sequences Directed Against the Melanocortin 4 Receptor and Polypeptides Comprising the Same for the Treatment of MC4R-Related Diseases and Disorders” (Confo Therapeutics N.V., priority 2022, published 2026) are described below.

Type in all cases: cell-based
In data set [1] the test system is melanized reconstituted human epidermis (RHE/MEL/001). As to the kind of experiment: In vitro pigmentation assay, 3D reconstituted human epidermis, dermoscopy. Here is the method:
The study was carried out on melanized human epidermis (RHE/MEL/001; batch CB0521-3) in vitro reconstituted with NHEKs (Normal human epidermal keratinocytes, Lonza 00192906) isolated from foreskin of 3 neonatal Caucasian donors and NHEM-DP (Normal Human Epidermal Melanocytes-Darkly pigmented) isolated form one donor (phototype IV-V). The tissues were cultured at the air-liquid interface in Epilife medium (Fisher Scientific, MEP1500CA) containing specific supplements (with among others Human Keratinocytes Growth Factors, Fisher Scientific S0015 or SO01K) and antibiotics (Gentamycin, Fisher Scientific, 15710049). They were maintained in a humid atmosphere at 37° C. with 5% CO2.
RHE/MEL/001 were reconstituted and cultivated at the air-liquid interface during 14 days in Epilife medium supplemented with specific growth supplements (as described in paragraph 1) in a humid atmosphere at 37° C. with CO2 5%.
IBMX (Sigma; 15879) at 100 µM was used as tanning reference compound to validate the experiment. A DMSO control (corresponding to the solvent used to solubilize IBMX) at 0.02% (corresponding to the final concentration in DMSO found in the culture medium for the condition treated with IBMX) was planned as well. Four replicates were planned per condition (n=4).
At the end of the 10 days treatments (at day 14), macroscopic high-resolution pictures of tissues (n=4) were taken. This was performed using the C-Cube device (Dermoscope type tool; Pixience, France) coupled to C-Cube clinical 3 software, which uses a proprietary method of colour calibration, and provides razor-sharp images of high quality and precision. The following endpoints were calculated, each one taking into account 3 values from the mode “L* a* b*” with L* reflecting the luminance/brightness (value from 0 to 100 with high values for clear skins), a* to gives an idea about the redness of the skin (value from −60 to 60 on the red/green axis) and b* to gives an idea about the yellowness of the skin (value from −60 to 60 on the blue/yellow axis): • ITA (Individual Typology Angle) characterizing the phototype, compared to a standard scale, with ITA>55° for very clear skins and ITA<−30° for black skins. • PI (Pigmentation Index) whose value is directly proportional to the skin pigmentation, with PI from 140 for clear skins to 200 for dark skins. • Colorimetric difference (score or ΔE) allows to quantify colour variation between a test condition and a reference. […]
The two test items, hydro-soluble, were evaluated in parallel of one reference compound known to be a pigmentation inducer, namely IBMX. Their capacity to stimulate the production of melanin was evaluated by visual quantification of melanin on macroscopic high resolution pictures obtained by dermoscopy. […]

Data set [2] relates to highly pigmented normal human epidermal melanocytes (NHEM-HP). As to the kind of experiment: In vitro pigmentation assay, melanin synthesis, 2D NHEM highly pigmented. The settings on record: 10 μM, 10 days. Here is the method:
Highly and moderately pigmented melanocytes were seeded in 24-well plates and cultured in culture medium for 24 hours. The medium was then replaced by culture medium containing or not (control) the test compounds or the reference compounds (L-tyrosine at 1 mM, IBMX at 100 and 200 μM and NDP-MSH at 10 μM). The cells were then incubated for 10 days with treatment renewal at day 3 and day 7. All experimental conditions were performed in n=3. At the end of the incubation time, the culture supernatants were removed, and melanin was extracted by cell lysis using a 0.5 N NaOH solution. The optical density (OD) of each experimental point was measured at 405 nm and melanin quantity was determined according to melanin standard curve (standard curve ranging from 0.39 to 100 μg/ml). The results were expressed in μg/ml of melanin. […] NHEM-HP response to L-tyrosine and NDP-MSH was stronger than in NHEM-MP while IBMX induced a stronger response in the NHEM-MP.

Another data set addresses human wild type MC4R (Homo sapiens, UniProt P32245). Description: cAMP GloSensor assay, MC4R. Also noted: Flag; expressed in transfected cells; host or cells: HEK293T. Here is the method: To confirm MC4R activation, dose-dependent nanobody-induced cAMP signaling was assessed (Lance Ultra HTRF). […] Binding of pN162 to the human melanocortin receptor subtypes MC1R, MC2R, MC3R, MC4R or MC5R transiently expressed as Flag-tagged receptors in HEK293T cells was assessed by flow cytometry.
HEK 293T cells were routinely maintained at 37° C., 5% CO2, under humidified atmosphere in Dulbecco's modified Eagle's medium (DMEM, Gibco, cat. no. 41966-029) supplemented with 10% heat-inactivated fetal bovine serum. In preparation of the experiments, cells were plated on poly-L-lysine coated white 96-well plates (Costar: 3917) at the density of 3,00E+04 cells/well. At the moment of seeding, cells were transfected with 25 ng of human MC4R in pcDNA3.1 (+) and 50 ng of p22F GLoSensor plasmid (Promega Corporation), empty pcDNA3.1 (+) vector was added to obtain 100 ng of total DNA, using XtremeGene HP (Roche). To evaluate cross-reactivity of different VHHs for other melanocortin receptors, cells were additionally transfected with 50 ng of DNA encoding one of the three melanocortin receptors MC1R/MC3R/MC5R in pcDNA3.1 (+) and 50 ng of p22F GLoSensor plasmid (Promega Corporation), using XtremeGene HP (Roche). After 24 h post transfection, growing medium was gently removed from the cells and replaced with 90 μl/well of Assay medium (OptiMEM media containing 10% FBS HI with 2% GloSensor reagent (Promega)) in which cells were incubated for 2 h at room temperature in the dark. Next, background luminescence level was recorded using the En Vision 2104 Multilabel Plate Reader (Perkin Elmer). Samples (purified VHH produced in E. coli and/or mammalian cells with or without FC fusion) or benchmark compounds were prepared at 10× working concentration in OptiMEM containing 10% heat-inactivated Fetal Bovine Serum (FBS). After addition of 10 μl of samples luminescence was recorded in a kinetic mode using the En Vision 2104 Multilabel Plate Reader (Perkin Elmer). Data were analyzed using GraphPad Prism 8 by applying nonlinear regression (curve fit).

Where [3] appears, read: 10 μM in culture medium, 10 days, dermoscopy.

Read-outs that look alike come from different tables or passages of the source.

human wild type MC4R, sequence (P32245 whole entry): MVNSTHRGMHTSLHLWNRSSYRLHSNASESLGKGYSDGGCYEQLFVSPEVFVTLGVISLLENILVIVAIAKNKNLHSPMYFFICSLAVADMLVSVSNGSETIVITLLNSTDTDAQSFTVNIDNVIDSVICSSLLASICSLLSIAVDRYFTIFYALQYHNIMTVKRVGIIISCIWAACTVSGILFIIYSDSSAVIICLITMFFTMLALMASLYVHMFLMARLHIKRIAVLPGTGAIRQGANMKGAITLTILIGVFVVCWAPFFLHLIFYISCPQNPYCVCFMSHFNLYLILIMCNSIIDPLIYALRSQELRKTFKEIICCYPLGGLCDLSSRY

B1: pN162: agonistic anti-MC4R VHH, SEQ ID NO: 184; parental clone for potency maturation (protein)
VHH: QVQLVESGGGLVQPGGSLRLSCAASGSAFSLNVMGWYRQTPGNQRALVAEITKDGSTNYADSAKGRFTISRDNAKNTVHLQMDSLKPEDTAVYYCKARTGRIVRPLDYWGQGTQVTVSS
modifications: pN0162
As to B1, in data set [1] (setting [3]), the “Individual typology angle (ITA)” value is on record as “No significant effects”; the “pigmentation index (PI)” value is “No significant effects”; the “visual colorimetric difference (score, ΔE)” value is given as “No significant effects”. Moreover, the “effect on epidermis pigmentation (conclusion of dermoscopy analysis)” value in data set [1] (10 μM, human epidermis in culture) was “no effect on epidermis pigmentation”. For the same molecule, the melanin synthesis in data set [2] was 89 % of the control. Also, the “reduced potency in cAMP signaling via human MC4R compared to setmelanotide” value in the data set with human wild type MC4R (GloSensor) was 6.7 fold. Also, the “detectable cAMP signaling, MC4R” value in the data set with human wild type MC4R (GloSensor head-to-head receptor subtype comparison) was “only induced detectable signaling on MC4R”. Also, the “potency ranking among agonistic nanobodies” value with human wild type MC4R (GloSensor, Flag-tagged human wild type MC4R HEK293T cells) is listed as “most potent full agonist nanobody”. Besides, the EC50 with human wild type MC4R (Promega GloSensor, HEK293 transiently transfected, real-time, read-out: cAMP assay (GloSensor)) is 8.4 ± 3.29 nM. For the same molecule, the EC50 with human wild type MC4R (human wild type MC4R in HEK293T cells, read-out: average EC50, real-time cAMP monitoring (GloSensor), MC4R) is 13.2 ± 5.6 nM.
